{
  "source": "paper PMC3487758",
  "about": "“Fibrillin-1 Mutations Causing Weill-Marchesani Syndrome and Acromicric and Geleophysic Dysplasias Disrupt Heparan Sulfate Interactions” (PLoS ONE, 2012)",
  "proteins": {"B1": {"name": "Fibrillin-1 fragment PF17-1 WMS (Weill-Marchesani syndrome deletion mutant) (domain or fragment)", "chain": "not shown", "notes": "human fibrillin-1, fragment PF17-1 (exons 30-43, residues 1238-1807) with the 8 amino acid deletion in TB5 found in patients with WMS; Purifies as a monomer (86%) and a disulfide-linked dimer (14%); the deletion removes Cys 1695; also called WMS mutant"}},
  "molecular_target": "the molecule itself",
  "test": "SEC-MALS; MALLS on each separated gel filtration peak; Wyatt EOS 18-angle light scattering detector, Optilab r-EX refractometer",
  "data": [
    {"protein": "B1", "values": [
      {"measurement": "stoichiometry N", "value": 2}
    ]}
  ]
}
